Assay results published in doi:10.1101/2025.11.07.687187 (bioRxiv, 2025).

Target: the molecule itself
Assay: cryo-EM structure

B1: SPATA5 wild-type, C-terminal 3xFLAG (enzyme, human, UniProt Q8NB90 1-893, looked up)
chain: MSSKKNRKRLNQSAENGSSLPSAASSCAEARAPSAGSDFAATSGTLTVTNLLEKVDDKIPKTFQNSLIHLGLNTMKSANICIGRPVLLTSLNGKQEVYTAWPMAGFPGGKVGLSEMAQKNVGVRPGDAIQVQPLVGAVLQAEEMDVALSDKDMEINEEELTGCILRKLDGKIVLPGNFLYCTFYGRPYKLQVLRVKGADGMILGGPQSDSDTDAQRMAFEQSSMETSSLELSLQLSQLDLEDTQIPTSRSTPYKPIDDRITNKASDVLLDVTQSPGDGSGLMLEEVTGLKCNFESAREGNEQLTEEERLLKFSIGAKCNTDTFYFISSTTRVNFTEIDKNSKEQDNQFKVTYDMIGGLSSQLKAIREIIELPLKQPELFKSYGIPAPRGVLLYGPPGTGKTMIARAVANEVGAYVSVINGPEIISKFYGETEAKLRQIFAEATLRHPSIIFIDELDALCPKREGAQNEVEKRVVASLLTLMDGIGSEVSEGQVLVLGATNRPHALDAALRRPGRFDKEIEIGVPNAQDRLDILQKLLRRVPHLLTEAELLQLANSAHGYVGADLKVLCNEAGLCALRRILKKQPNLPDVKVAGLVKITLKDFLQAMNDIRPSAMREIAIDVPNVSWSDIGGLESIKLKLEQAVEWPLKHPESFIRMGIQPPKGVLLYGPPGCSKTMIAKALANESGLNFLAIKGPELMNKYVGESERAVRETFRKARAVAPSIIFFDELDALAVERGSSLGAGNVADRVLAQLLTEMDGIEQLKDVTILAATNRPDRIDKALMRPGRIDRIIYVPLPDAATRREIFKLQFHSMPVSNEVDLDELILQTDAYSGAEIVAVCREAALLALEEDIQANLIMKRHFTQALSTVTPRIPESLRRFYEDYQEKSGLHTL
B1: binds.
